Positions count from the first letter of the chain named. Names and notes keep the numbering of the source. Values joined by “and” are separate entries in the source; they are usually repeats but may differ in a detail not shown here. Equal values may be shown once.

22 molecules from patent publication US20220259330A1 (SUNSHINE GUOJIAN PHARMACEUTICAL SHANGHAI, published 2022) can be followed below.

The chains are these.
T1: VEGF165-His (human, UniProt P15692-4 27-191)
T1 construct: also called Human VEGF165 with a 6*His tag
T1 sequence: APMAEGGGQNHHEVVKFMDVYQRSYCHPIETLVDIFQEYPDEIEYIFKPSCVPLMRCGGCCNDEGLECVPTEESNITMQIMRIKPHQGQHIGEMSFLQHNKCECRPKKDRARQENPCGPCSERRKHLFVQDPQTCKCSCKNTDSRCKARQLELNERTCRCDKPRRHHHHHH

B1: 601-HC+20-Hu-LC (antibody, human IgG1, kappa, V domains shown)
VH: EVQLVESGGGLVQPGGSLRLSCAASGYTFTNYGMNWVRQAPGKGLEWVGWINTYTGEPTYAADFKRRFTFSLDTSKSTAYLQMNSLRAEDTAVYYCAKYPHYYGSSHWYFDVWGQGTLVTVSS
VL: DIQMTQSPSSLSASVGDRVTITCSASQGISNFLSWYQQKPGKTVKLLIYYTSSLHSGVPSRFSGSGSGTDYTFTISSLQPEDIATYYCQQYSNLPWTFGQGTKVEIKR
notes: Hybrid antibody
B2: 601-HC+601-LC-Y32F (antibody, human IgG1, kappa, V domains shown)
VH: B1 VH
VL: DIQMTQSPSSLSASVGDRVTITCSASQDISNFLNWYQQKPGKAPKVLIYFTSSLHSGVPSRFSGSGSGTDFTLTISSLQPEDFATYYCQQYSTVPWTFGQGTKVEIKR
B3: 601-HC+601-LC-V46L (antibody, human IgG1, kappa, V domains shown)
VH: B1 VH
VL: B2 VL with F32Y, V46L
B4: 601-HC+601-LC-D28G (antibody, human IgG1, kappa, V domains shown)
VH: B1 VH
VL: B2 VL with D28G, F32Y
B5: 601-HC+601-LC-F50Y (antibody, human IgG1, kappa, V domains shown)
VH: B1 VH
VL: B2 VL with F32Y, F50Y
B6: 601-HC+601-LC-F71Y (antibody, human IgG1, kappa, V domains shown)
VH: B1 VH
VL: B2 VL with F32Y, F71Y
B7: 601-HC+601-LC-T93N (antibody, human IgG1, kappa, V domains shown)
VH: B1 VH
VL: B2 VL with F32Y, T93N
B8: 601-HC+601-LC-N34S (antibody, human IgG1, kappa, V domains shown)
VH: B1 VH
VL: B2 VL with F32Y, N34S
B9: CD47B-Fab-19H6-IgG1 (bispecific antibody)
heavy: not shown
light: DVVMTQSPLSLPVTLGQPASISCRSSQSLVHSNGNTYLHWYQQRPGQSPRLLIYKVSNRFSGVPDRFSGSGSGTDFTLKISRVEAEDVGVYFCSQSTHIPWTFGQGTKVEIKRTVAAPSVFIFPPSDEQLKSGTASVVCLLNNFYPREAKVQWKVDNALQSGNSQESVTEQDSKDSTYSLSSTLTLSKADYEKHKVYACEVTHQGLSSPVTKSFNRGEC
B10: 19H6-Fab-CD47B-IgG1 (bispecific antibody)
heavy: not shown
light: B9 light
B11: 19H6-Hu (antibody, human IgG1, kappa, V domains shown)
VH: QVQLVQSGAEVKKPGASVKVSCKGSGYTFTDYAIHWVRQAPGQSLEWIGVFSIYYENINYNQKFKGRATMTVDKSTSTAYMELRSLRSDDTAVYYCARRDGGTINYWGQGTLVTVSS
VL: DVVMTQSPLSLPVTLGQPASISCRSSQSLVHSNGNTYLHWYQQRPGQSPRLLIYKVSNRFSGVPDRFSGSGSGTDFTLKISRVEAEDVGVYFCSQSTHIPWTFGQGTKVEIKR
notes: Humanized anti-human HER2, IgG1, kappa; also called 19H6-Hu-HC+19H6-Hu-LC
B12: Anti-CD47B-Hu (antibody, human IgG1, kappa, V domains shown)
VH: QVQLVQSGAEVKKPGASVKVSCKASGYTFANHVIHWVRQAPGQGLEWMGYIYPYNDGTKYNEKFKDRVTLTSDKSTSTVYMELSSLRSEDTAVYYCARGGYYTYDDWGQGTLVTVSS
VL: B11 VL with N35K, F92Y, I99V, W101Y
notes: Humanized anti-human CD47, IgG1, kappa; also called humanized MABL-2
B13: Anti-CD47B-Hu-HC+19H6-Hu-LC (antibody, human IgG1, kappa, V domains shown)
VH: B12 VH
VL: B11 VL
notes: Hybrid antibody
B14: 19H6-Hu-HC+Anti-CD47B-Hu-LC (antibody, human IgG1, kappa, V domains shown)
VH: B11 VH
VL: B11 VL with N35K, F92Y, I99V, W101Y
notes: Hybrid antibody
B15: 40-Fab-609-IgG4 (bispecific antibody)
heavy: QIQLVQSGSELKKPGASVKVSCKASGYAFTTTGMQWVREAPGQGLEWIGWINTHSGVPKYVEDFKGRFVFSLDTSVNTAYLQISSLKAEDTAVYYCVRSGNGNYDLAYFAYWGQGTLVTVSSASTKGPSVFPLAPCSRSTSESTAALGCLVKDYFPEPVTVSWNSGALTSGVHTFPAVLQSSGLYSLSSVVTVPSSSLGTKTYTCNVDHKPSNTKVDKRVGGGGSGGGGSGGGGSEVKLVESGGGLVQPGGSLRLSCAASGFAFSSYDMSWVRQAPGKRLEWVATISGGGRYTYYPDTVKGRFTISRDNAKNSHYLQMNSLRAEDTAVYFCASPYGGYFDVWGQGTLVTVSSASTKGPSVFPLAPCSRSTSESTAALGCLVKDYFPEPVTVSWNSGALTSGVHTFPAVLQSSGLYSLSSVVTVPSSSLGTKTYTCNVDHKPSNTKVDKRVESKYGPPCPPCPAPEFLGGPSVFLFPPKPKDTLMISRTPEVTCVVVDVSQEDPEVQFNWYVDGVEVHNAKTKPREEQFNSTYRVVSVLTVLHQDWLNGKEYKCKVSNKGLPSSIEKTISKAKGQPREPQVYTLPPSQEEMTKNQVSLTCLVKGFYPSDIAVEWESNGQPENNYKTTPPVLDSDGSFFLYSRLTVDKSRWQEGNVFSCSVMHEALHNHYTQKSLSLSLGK
light: EIVLTQSPATLSLSPGERATLSCRASQSISDYLHWYQQKPGQSPRLLIKYASHSISGIPARFSGSGSGSDFTLTISSLEPEDFAVYYCQHGHSFPWTFGQGTKVEIKRTVAAPSVFIFPPSDEQLKSGTASVVCLLNNFYPREAKVQWKVDNALQSGNSQESVTEQDSKDSTYSLSSTLTLSKADYEKHKVYACEVTHQGLSSPVTKSFNRGEC
B16: 609-Fab-40-IgG4 (bispecific antibody)
heavy: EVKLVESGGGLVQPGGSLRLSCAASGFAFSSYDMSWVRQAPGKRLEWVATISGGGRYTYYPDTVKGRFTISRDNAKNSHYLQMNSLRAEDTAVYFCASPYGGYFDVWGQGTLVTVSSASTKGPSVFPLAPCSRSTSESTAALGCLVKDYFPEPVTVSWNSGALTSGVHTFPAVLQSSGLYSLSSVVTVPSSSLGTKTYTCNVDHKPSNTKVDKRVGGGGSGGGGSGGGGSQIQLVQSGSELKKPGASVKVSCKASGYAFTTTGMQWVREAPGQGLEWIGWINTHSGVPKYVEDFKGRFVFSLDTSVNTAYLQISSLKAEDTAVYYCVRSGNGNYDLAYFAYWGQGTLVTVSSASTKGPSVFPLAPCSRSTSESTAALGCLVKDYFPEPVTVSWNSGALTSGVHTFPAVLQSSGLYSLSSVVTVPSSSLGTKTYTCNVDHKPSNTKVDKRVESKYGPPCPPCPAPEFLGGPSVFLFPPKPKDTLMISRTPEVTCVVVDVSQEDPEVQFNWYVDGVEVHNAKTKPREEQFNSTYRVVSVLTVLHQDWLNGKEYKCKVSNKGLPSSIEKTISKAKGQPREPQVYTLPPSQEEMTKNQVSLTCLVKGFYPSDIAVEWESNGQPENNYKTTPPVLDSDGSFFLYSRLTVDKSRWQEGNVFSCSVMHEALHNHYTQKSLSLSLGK
light: B15 light
B17: Anti-CD40-Hu (antibody, human IgG4 S228P, kappa, V domains shown)
VH: QIQLVQSGSELKKPGASVKVSCKASGYAFTTTGMQWVREAPGQGLEWIGWINTHSGVPKYVEDFKGRFVFSLDTSVNTAYLQISSLKAEDTAVYYCVRSGNGNYDLAYFAYWGQGTLVTVSS
VL: EIVLTQSPATLSLSPGERATLSCRASQSISDYLHWYQQKPGQSPRLLIKYASHSISGIPARFSGSGSGSDFTLTISSLEPEDFAVYYCQHGHSFPWTFGQGTKVEIKR
notes: Humanized anti-human CD40, IgG4 (S228P), kappa; also called humanized MAb2.220
B18: Anti-CD40-Hu-HC+609-LC (antibody, human IgG4 S228P, kappa, V domains shown)
VH: B17 VH
VL: EIVLTQSPATLSLSPGERATLSCRASQSISNFLHWYQQKPGQAPRLLIKYASQSISGIPARFSGSGSGTDFTLTISSLEPEDFAVYFCQQSNSWPHTFGQGTKVEIKR
notes: Hybrid antibody
B19: Anti-CD137-Hu (antibody, human IgG4 S228P, kappa, V domains shown)
VH: QVQLVQSGAEVKKPGASVKVSCKASGYTFSSYWMHWVRQAPGQGLEWMGEINPGNGHTNYNEKFKSRVTLTVDKSTSTVYMELSSLRSEDTAVYYCARSFTTARGFAYWGQGTLVTVSS
VL: EIVMTQSPDFQSVTPKEKVTITCRASQTISDYLHWYQQKPDQSPKLLIKYASQSISGIPSRFSGSGSGSDFTLTINSLEAEDAATYYCQDGHSFPPTFGQGTKVEIKR
notes: Humanized anti-human CD137, IgG4 (S228P), kappa; also called humanized 4B4-1-1
B20: Anti-CD137-Hu-HC+609-LC (antibody, human IgG4 S228P, kappa, V domains shown)
VH: B19 VH
VL: B18 VL
notes: Hybrid antibody
B21: 609-Fab-137-IgG4 (bispecific antibody)
heavy: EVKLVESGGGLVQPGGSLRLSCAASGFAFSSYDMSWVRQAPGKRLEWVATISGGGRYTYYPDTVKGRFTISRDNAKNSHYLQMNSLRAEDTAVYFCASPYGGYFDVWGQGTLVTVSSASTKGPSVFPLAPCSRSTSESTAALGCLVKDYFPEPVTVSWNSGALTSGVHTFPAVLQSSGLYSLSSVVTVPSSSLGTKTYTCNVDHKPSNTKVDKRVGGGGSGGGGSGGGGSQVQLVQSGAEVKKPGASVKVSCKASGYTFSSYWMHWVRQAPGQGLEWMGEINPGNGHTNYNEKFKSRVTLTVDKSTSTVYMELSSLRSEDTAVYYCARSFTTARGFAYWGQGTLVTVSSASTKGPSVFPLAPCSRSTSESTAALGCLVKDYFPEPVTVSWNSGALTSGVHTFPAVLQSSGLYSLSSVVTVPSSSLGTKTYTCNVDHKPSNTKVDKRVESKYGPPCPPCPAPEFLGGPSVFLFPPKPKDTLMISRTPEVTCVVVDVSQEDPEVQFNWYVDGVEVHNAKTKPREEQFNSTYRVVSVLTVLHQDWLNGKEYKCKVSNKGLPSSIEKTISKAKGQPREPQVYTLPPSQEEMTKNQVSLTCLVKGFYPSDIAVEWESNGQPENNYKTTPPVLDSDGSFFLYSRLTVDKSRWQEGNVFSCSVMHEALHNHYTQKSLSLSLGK
light: EIVMTQSPDFQSVTPKEKVTITCRASQTISDYLHWYQQKPDQSPKLLIKYASQSISGIPSRFSGSGSGSDFTLTINSLEAEDAATYYCQDGHSFPPTFGQGTKVEIKRTVAAPSVFIFPPSDEQLKSGTASVVCLLNNFYPREAKVQWKVDNALQSGNSQESVTEQDSKDSTYSLSSTLTLSKADYEKHKVYACEVTHQGLSSPVTKSFNRGEC
B22: 137-Fab-609-IgG4 (bispecific antibody)
heavy: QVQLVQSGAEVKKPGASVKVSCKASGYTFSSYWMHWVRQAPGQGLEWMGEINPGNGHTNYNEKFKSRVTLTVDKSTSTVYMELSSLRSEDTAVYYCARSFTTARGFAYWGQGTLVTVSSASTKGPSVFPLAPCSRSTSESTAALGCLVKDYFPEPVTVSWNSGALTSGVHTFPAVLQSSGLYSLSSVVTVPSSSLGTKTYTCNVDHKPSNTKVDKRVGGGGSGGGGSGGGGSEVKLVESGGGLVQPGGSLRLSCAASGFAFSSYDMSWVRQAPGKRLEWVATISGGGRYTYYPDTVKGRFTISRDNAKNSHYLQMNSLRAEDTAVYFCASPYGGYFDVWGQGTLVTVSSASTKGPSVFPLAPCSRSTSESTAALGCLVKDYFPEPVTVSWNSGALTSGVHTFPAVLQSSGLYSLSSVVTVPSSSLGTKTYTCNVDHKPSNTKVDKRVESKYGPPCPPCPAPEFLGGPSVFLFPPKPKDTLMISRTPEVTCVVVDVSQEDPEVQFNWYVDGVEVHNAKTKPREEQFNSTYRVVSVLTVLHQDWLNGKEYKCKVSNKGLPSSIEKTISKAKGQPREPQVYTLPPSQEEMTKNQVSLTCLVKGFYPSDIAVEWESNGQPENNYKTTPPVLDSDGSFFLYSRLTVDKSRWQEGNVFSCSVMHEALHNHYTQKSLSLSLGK
light: B21 light

T4 sequence (Q07011 24-186): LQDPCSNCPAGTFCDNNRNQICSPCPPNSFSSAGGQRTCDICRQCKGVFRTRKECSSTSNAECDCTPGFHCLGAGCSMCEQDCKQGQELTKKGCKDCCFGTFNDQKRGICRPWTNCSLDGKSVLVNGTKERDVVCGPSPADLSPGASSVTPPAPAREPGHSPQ
T5 sequence (Q15116 25-170): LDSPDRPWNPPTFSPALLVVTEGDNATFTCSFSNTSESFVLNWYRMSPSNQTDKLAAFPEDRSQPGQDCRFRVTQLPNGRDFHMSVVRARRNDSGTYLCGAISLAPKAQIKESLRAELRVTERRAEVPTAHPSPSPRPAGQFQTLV

The target in one assay is T1, VEGF165-His. Description: ELISA, plate coated with VEGF165-His. On the technique in general: ELISA stands for enzyme-linked immunosorbent assay.
Description: The ELISA detection method used in the following examples is described as follows: An ELISA plate was coated with recombinant proteins, respectively, and blocked with PBST containing 1% bovine serum albumin (PBST: phosphate buffer containing 0.05% Tween-20). The antibody to be tested was serially diluted, and then transferred to the above plate coated with recombinant protein, incubated at room temperature for half an hour and then the plate was washed; an appropriately diluted HRP (Horseradish Peroxidase)-labeled goat anti-human antibody (Fc- or Fab Specific, purchased from Sigma) was added, incubated at room temperature for half an hour and then the plate was washed; 100 μl of chromogenic solution with TMB (3,3′,5,5′-Tetramethylbenzidine) as a substrate was added to each well, incubated at room temperature for 1-5 min; 50 μl of stop solution (2M H₂SO₄) was added to stop the reaction. OD450 was read with a microplate reader (SpectraMax 190), and graphing and data analysis were performed using GraphPad Prism6, and EC50 was calculated.
Human VEGF165 with a 6*His tag (sequence from NCBI, Accession: AAM03108), and this recombinant protein was denoted as VEGF165-His. An ELISA plate was coated with PD1-His and VEGF165-His, with a coating concentration of 20 ng/well and 10 ng/well, respectively.
Regarding B1, the response was half-maximal at 8.22 nM (EC50).
On the same count and under the same terms, to B2 belongs 0.125 nM; to B3, 0.326 nM.
The same measure, in the same setting: to B4 belongs 0.133 nM; to B5, 0.14 nM; to B6, 0.148 nM.
As for B7, the response was half-maximal at 0.126 nM (EC50).
Turning to B8, it took 0.208 nM to reach a half-maximal effect (EC50).

The next assay has as its target T2, HER2-ECD-His (human, UniProt P04626 23-652).
T2 construct: extracellular domain; Bought; also called recombinant protein of the extracellular segment of human Her-2 with a polyhistidine tag (ACROBiosystems HE2-H5225); not shown: polyhistidine tag
Description: ELISA, plate coated with HER2-ECD-His.
B9: a half-maximal effect (EC50) was put at 0.106 nM.
As to B10, it took 0.154 nM to reach a half-maximal effect (EC50). The EC50 values of the last two molecules are within 1.5-fold of each other.
With B11, the EC50 – broadly, the concentration giving half of the maximal effect – is 0.077 nM and 0.126 nM and 0.122 nM and 0.193 nM.
Turning to B12, the binding result is “no binding”.
Same read-out and setting: to B13 belongs “no binding”.
The molecule B14 returned an EC50 of 0.139 nM. In other words, the sub-nanomolar range.

The target in the next assay is T3, CD40-ECD-His (human, UniProt P25942 21-193).
T3 construct: extracellular domain; Bought; also called recombinant protein of the extracellular segment of human CD40 with a polyhistidine tag (Sino Biological 10774-H08H); not shown: polyhistidine tag
T3 sequence (P25942 21-193): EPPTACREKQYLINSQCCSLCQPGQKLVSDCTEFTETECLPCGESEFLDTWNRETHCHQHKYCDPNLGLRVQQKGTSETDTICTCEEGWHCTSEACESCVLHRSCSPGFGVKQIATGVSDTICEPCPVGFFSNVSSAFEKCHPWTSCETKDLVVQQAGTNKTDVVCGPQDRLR
The assay is described as follows: ELISA, plate coated with CD40-ECD-His.
With B15, the EC50 came to 0.0956 nM.
Same read-out and setting: the same measure for B16: 0.105 nM.
The same measure, in the same setting: the same measure for B17: 0.11 nM.
Take B18: the binding result was “no binding”.

The next assay addresses T4, CD137-ECD-Fc (human, UniProt Q07011 24-186).
T4 construct: extracellular domain; Bought; also called recombinant protein of the extracellular segment of human CD137 with Fc tags (Sino Biological 10041-H02H); not shown: Fc tag
The assay is described as follows: ELISA, plate coated with CD137-ECD-Fc.
Take B19: the EC50 worked out at 0.461 nM.
For the molecule B20, the binding result is recorded as “no binding”.
The same measure, in the same setting: to B11 belongs “no binding”.
B21: a half-maximal response (EC50) required 0.357 nM.
B22 returned an EC50 of 0.242 nM.

The next assay has as its target T5, PD1-ECD-His (human, UniProt Q15116 25-170).
T5 construct: extracellular domain; Bought; also called recombinant protein of the extracellular segment of human PD-1 with a polyhistidine tag (Sino Biological 10377-H08H); not shown: polyhistidine tag
Description: ELISA, plate coated with PD1-ECD-His.
B19: the binding result is listed as “no binding”.
Same read-out and setting: the same measure for B20: “no binding”.
Take B15: the EC50 was determined as 1.02 nM.
Same read-out and setting: the same measure for B16: 0.172 nM.
In the case of B17, the binding result is on record as “no binding”.
The same measure, in the same setting: to B18 belongs “no binding”.
In the case of B21, the EC50 worked out at 0.229 nM.
On the same count and under the same terms, the same measure for B22: 1.42 nM.

The target in the next assay is T6, CD47-ECD-His (human, UniProt Q08722 19-139).
T6 construct: extracellular domain; Bought; also called recombinant protein of the extracellular segment of human CD47 with a polyhistidine tag (Sino Biological 12283-H08H); not shown: polyhistidine tag
T6 sequence (Q08722 19-139 limits assumed): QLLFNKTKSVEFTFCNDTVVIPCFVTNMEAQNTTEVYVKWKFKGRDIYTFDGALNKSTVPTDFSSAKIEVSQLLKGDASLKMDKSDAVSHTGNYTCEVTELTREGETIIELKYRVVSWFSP
The assay is described as follows: ELISA, plate coated with CD47-ECD-His.
With B9, the EC50 stood at 0.0782 nM.
B10 registered an EC50 of 0.195 nM.
Regarding B11, the binding result is given as “no binding”.
Molecule B12 showed an EC50 of 0.0428 nM.
Consider B13, for which the concentration for a half-maximal effect (EC50) was 0.0541 nM and 0.0617 nM.
B14: the binding result is on record as “no binding”.
